Reference: article PMC7280208, “Integral approach to biomacromolecular structure by analytical-ultracentrifugation and small-angle scattering” (Communications Biology, 2020)

Target: T1, PUB domain of peptide:N-glycanase (UniProt Q9JI78 1-119)
T1 construct: PUB domain of peptide:N-glycanase (PNGase); molecular weight 12.5 kDa as printed in the methods; PDB 2D5U is, as I recall, the mouse protein; The supplement's 1.34 mg/mL for 100 µM implies 13.4 kDa, not the 12.5 kDa of the methods; also called PNGase-PUB; component B; source: purified, dialyzed in 10 mM sodium phosphate buffer (pH 7.0) or PBS
T1 sequence: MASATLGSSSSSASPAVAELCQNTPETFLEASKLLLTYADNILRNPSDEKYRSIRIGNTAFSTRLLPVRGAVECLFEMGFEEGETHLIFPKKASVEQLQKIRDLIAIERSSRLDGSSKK
Assay: AUC; sedimentation equilibrium (SE-AUC) of the mixture in 10 mM sodium phosphate buffer (pH 7.0), 25 °C; [hHR23b-UBL] = [PNGase-PUB] = 100, 75 and 50 µM; 20000, 30000 and 35000 rpm; absorbance optics; global fit with the association-dissociation equilibrium model A + B = AB (eq. 7, SEDPHAT)
Conditions: both partners purified

Kd: 227 ± 28 µM
B1: ubiquitin-like domain of the proteasome shuttle factor hHR23b (domain or fragment)
chain: not shown
notes: ubiquitin-like (UBL) domain of hHR23b; molecular weight 9.5 kDa as printed; also called hHR23b-UBL; component A; source: purified, dialyzed in 10 mM sodium phosphate buffer (pH 7.0) or PBS
